Assay results as given in PMC5100913 (PLoS ONE, 2016).

Target: T1, Aha1 (yeast, UniProt Q12449 1-350)
T1 sequence (looked up): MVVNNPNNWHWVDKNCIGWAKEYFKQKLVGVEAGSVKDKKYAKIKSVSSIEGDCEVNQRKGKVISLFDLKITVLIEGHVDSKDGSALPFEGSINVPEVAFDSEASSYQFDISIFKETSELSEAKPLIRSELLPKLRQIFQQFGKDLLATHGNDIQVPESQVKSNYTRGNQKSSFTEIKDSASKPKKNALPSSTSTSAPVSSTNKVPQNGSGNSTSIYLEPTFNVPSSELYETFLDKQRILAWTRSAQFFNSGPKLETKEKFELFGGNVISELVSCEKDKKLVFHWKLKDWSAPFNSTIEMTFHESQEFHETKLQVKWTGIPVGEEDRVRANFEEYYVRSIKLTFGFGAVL
Assay: cell-based or functional assay

stimulation of the chaperone's ATPase activity by Aha1 (NADH coupled enzymatic assay, hsp90:Aha1 1:2): 10 fold
B1: yeast Hsp90 (natural protein)
chain: not shown
